Here are results for 2 molecules from patent publication US20180236026.

Data set [1] concerns synthetic purified T1A peptide.
The target in data set [2] is T1, synthetic purified T1A peptide.
T1 chain: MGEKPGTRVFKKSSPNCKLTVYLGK

As to MKK7 (purified), the “optimal T1A concentration for JNK3 phosphorylation by MKK7, against full-length arrestin-3” value in data set [1] is “in both cases optimal T1A concentrations were ˜10-times lower than those of full-length arrestin-3”.

B1: MKK4 (purified) (protein)
chain: MAAPSPSGGGGSGGGSGSGTPGPVGSPAPGHPAVSSMQGKRKALKLNFANPPFKSTARFTLNPNPTGVQNPHIERLRTHSIESSGKLKISPEQHWDFTAEDLKDLGEIGRGAYGSVNKMVHKPSGQIMAVKRIRSTVDEKEQKQLLMDLDVVMRSSDCPYIVQFYGALFREGDCWICMELMSTSFDKFYKYVYSVLDDVIPEEILGKITLATVKALNHLKENLKIIHRDIKPSNILLDRSGNIKLCDFGISGQLVDSIAKTRDAGCRPYMAPERIDPSASRQGYDVRSDVWSLGITLYELATGRFPYPKWNSVFDQLTQVVKGDPPQLSNSEEREFSPSFINFVNLCLTKDESKRPKYKELLKHPFILMYEERAVEVACYVCKILDQMPATPSSPMYVD
Take B1: in data set [2], the “JNK3 phosphorylation by MKK4 as a function of T1A concentration (in vitro kinase assay, purified proteins)” value is recorded as “the optimal concentration of T1A for promoting JNK3 phosphorylation by MKK4 is lower than for MKK7-JNK3 module” and the “optimal T1A concentration for JNK3 phosphorylation by MKK4, against full-length arrestin-3” value was “in both cases optimal T1A concentrations were ˜10-times lower than those of full-length arrestin-3”.
